Reference: patent US9657062B2, “Ghrelin analogues” (Zealand Pharma A/S, priority 2012, dated 2017)
*1 amine or outer side, *2 acyl side, *3 side chain or, on linkers, in order; H or OH if unused. [ ]: non-standard residue; d: D form. The star is where a group is joined. Cmp = 4-carboxymethyl-piperidine, O=C(CC1CCN([*:1])CC1)[*:2]; Achc(cis-1,4) = O=C([C@H]1CC[C@@H](N[*:1])CC1)[*:2]; Octanoyl = CCCCCCCC(=O)*; Octyl = CCCCCCCC*

B1: H-PS-S(O-octyl)-FLSPEHQRVQQRKESKKPPA-NH2 (peptide)
peptide: H-PSS(Octyl)FLSPEHQRVQQRKESKKPPA-NH2
SMILES: CCCCCCCCOC[C@H](NC(=O)[C@H](CO)NC(=O)[C@@H]1CCCN1)C(=O)N[C@@H](Cc1ccccc1)C(=O)N[C@@H](CC(C)C)C(=O)N[C@@H](CO)C(=O)N1CCC[C@H]1C(=O)N[C@@H](CCC(=O)O)C(=O)N[C@@H](Cc1c[nH]cn1)C(=O)N[C@@H](CCC(N)=O)C(=O)N[C@@H](CCCNC(=N)N)C(=O)N[C@H](C(=O)N[C@@H](CCC(N)=O)C(=O)N[C@@H](CCC(N)=O)C(=O)N[C@@H](CCCNC(=N)N)C(=O)N[C@@H](CCCCN)C(=O)N[C@@H](CCC(=O)O)C(=O)N[C@@H](CO)C(=O)N[C@@H](CCCCN)C(=O)N[C@@H](CCCCN)C(=O)N1CCC[C@H]1C(=O)N1CCC[C@H]1C(=O)N[C@@H](C)C(N)=O)C(C)C
B2: H-PS-S(O-octyl)-FLSPEHQRVQQRKES-NH2 (peptide)
peptide: H-PSS(Octyl)FLSPEHQRVQQRKES-NH2
SMILES: CCCCCCCCOC[C@H](NC(=O)[C@H](CO)NC(=O)[C@@H]1CCCN1)C(=O)N[C@@H](Cc1ccccc1)C(=O)N[C@@H](CC(C)C)C(=O)N[C@@H](CO)C(=O)N1CCC[C@H]1C(=O)N[C@@H](CCC(=O)O)C(=O)N[C@@H](Cc1c[nH]cn1)C(=O)N[C@@H](CCC(N)=O)C(=O)N[C@@H](CCCNC(=N)N)C(=O)N[C@H](C(=O)N[C@@H](CCC(N)=O)C(=O)N[C@@H](CCC(N)=O)C(=O)N[C@@H](CCCNC(=N)N)C(=O)N[C@@H](CCCCN)C(=O)N[C@@H](CCC(=O)O)C(=O)N[C@@H](CO)C(N)=O)C(C)C
B3: H-Cmp-S(O-octanoyl)-FLSPEHQRVQQRKESKKPPAKLQPR-OH (peptide)
peptide: H-[Cmp]S(Octanoyl)FLSPEHQRVQQRKESKKPPAKLQPR-OH
SMILES: CCCCCCCC(=O)OC[C@H](NC(=O)CC1CCNCC1)C(=O)N[C@@H](Cc1ccccc1)C(=O)N[C@@H](CC(C)C)C(=O)N[C@@H](CO)C(=O)N1CCC[C@H]1C(=O)N[C@@H](CCC(=O)O)C(=O)N[C@@H](Cc1c[nH]cn1)C(=O)N[C@@H](CCC(N)=O)C(=O)N[C@@H](CCCNC(=N)N)C(=O)N[C@H](C(=O)N[C@@H](CCC(N)=O)C(=O)N[C@@H](CCC(N)=O)C(=O)N[C@@H](CCCNC(=N)N)C(=O)N[C@@H](CCCCN)C(=O)N[C@@H](CCC(=O)O)C(=O)N[C@@H](CO)C(=O)N[C@@H](CCCCN)C(=O)N[C@@H](CCCCN)C(=O)N1CCC[C@H]1C(=O)N1CCC[C@H]1C(=O)N[C@@H](C)C(=O)N[C@@H](CCCCN)C(=O)N[C@@H](CC(C)C)C(=O)N[C@@H](CCC(N)=O)C(=O)N1CCC[C@H]1C(=O)N[C@@H](CCCNC(=N)N)C(=O)O)C(C)C
B4: H-PS-S(O-octyl)-FLSPEHSRVSSRKESKKPPAKLSPR-NH2 (peptide)
peptide: H-PSS(Octyl)FLSPEHSRVSSRKESKKPPAKLSPR-NH2
SMILES: CCCCCCCCOC[C@H](NC(=O)[C@H](CO)NC(=O)[C@@H]1CCCN1)C(=O)N[C@@H](Cc1ccccc1)C(=O)N[C@@H](CC(C)C)C(=O)N[C@@H](CO)C(=O)N1CCC[C@H]1C(=O)N[C@@H](CCC(=O)O)C(=O)N[C@@H](Cc1c[nH]cn1)C(=O)N[C@@H](CO)C(=O)N[C@@H](CCCNC(=N)N)C(=O)N[C@H](C(=O)N[C@@H](CO)C(=O)N[C@@H](CO)C(=O)N[C@@H](CCCNC(=N)N)C(=O)N[C@@H](CCCCN)C(=O)N[C@@H](CCC(=O)O)C(=O)N[C@@H](CO)C(=O)N[C@@H](CCCCN)C(=O)N[C@@H](CCCCN)C(=O)N1CCC[C@H]1C(=O)N1CCC[C@H]1C(=O)N[C@@H](C)C(=O)N[C@@H](CCCCN)C(=O)N[C@@H](CC(C)C)C(=O)N[C@@H](CO)C(=O)N1CCC[C@H]1C(=O)N[C@@H](CCCNC(=N)N)C(N)=O)C(C)C
B5: H-PS-S(O-octyl)-FLSPEHQRVQRKESKKPPAKLQPR-NH2 (peptide)
peptide: H-PSS(Octyl)FLSPEHQRVQRKESKKPPAKLQPR-NH2
SMILES: CCCCCCCCOC[C@H](NC(=O)[C@H](CO)NC(=O)[C@@H]1CCCN1)C(=O)N[C@@H](Cc1ccccc1)C(=O)N[C@@H](CC(C)C)C(=O)N[C@@H](CO)C(=O)N1CCC[C@H]1C(=O)N[C@@H](CCC(=O)O)C(=O)N[C@@H](Cc1c[nH]cn1)C(=O)N[C@@H](CCC(N)=O)C(=O)N[C@@H](CCCNC(=N)N)C(=O)N[C@H](C(=O)N[C@@H](CCC(N)=O)C(=O)N[C@@H](CCCNC(=N)N)C(=O)N[C@@H](CCCCN)C(=O)N[C@@H](CCC(=O)O)C(=O)N[C@@H](CO)C(=O)N[C@@H](CCCCN)C(=O)N[C@@H](CCCCN)C(=O)N1CCC[C@H]1C(=O)N1CCC[C@H]1C(=O)N[C@@H](C)C(=O)N[C@@H](CCCCN)C(=O)N[C@@H](CC(C)C)C(=O)N[C@@H](CCC(N)=O)C(=O)N1CCC[C@H]1C(=O)N[C@@H](CCCNC(=N)N)C(N)=O)C(C)C
B6: H-PS-S(O-octyl)-FLSPEHSRVSSR-NH2 (peptide)
peptide: H-PSS(Octyl)FLSPEHSRVSSR-NH2
SMILES: CCCCCCCCOC[C@H](NC(=O)[C@H](CO)NC(=O)[C@@H]1CCCN1)C(=O)N[C@@H](Cc1ccccc1)C(=O)N[C@@H](CC(C)C)C(=O)N[C@@H](CO)C(=O)N1CCC[C@H]1C(=O)N[C@@H](CCC(=O)O)C(=O)N[C@@H](Cc1c[nH]cn1)C(=O)N[C@@H](CO)C(=O)N[C@@H](CCCNC(=N)N)C(=O)N[C@H](C(=O)N[C@@H](CO)C(=O)N[C@@H](CO)C(=O)N[C@@H](CCCNC(=N)N)C(N)=O)C(C)C
B7: H-SS-S(O-octanoyl)-FLSPEHQRVQQRKESKKPPAKLQPR-OH (peptide)
peptide: H-SSS(Octanoyl)FLSPEHQRVQQRKESKKPPAKLQPR-OH
SMILES: CCCCCCCC(=O)OC[C@H](NC(=O)[C@H](CO)NC(=O)[C@@H](N)CO)C(=O)N[C@@H](Cc1ccccc1)C(=O)N[C@@H](CC(C)C)C(=O)N[C@@H](CO)C(=O)N1CCC[C@H]1C(=O)N[C@@H](CCC(=O)O)C(=O)N[C@@H](Cc1c[nH]cn1)C(=O)N[C@@H](CCC(N)=O)C(=O)N[C@@H](CCCNC(=N)N)C(=O)N[C@H](C(=O)N[C@@H](CCC(N)=O)C(=O)N[C@@H](CCC(N)=O)C(=O)N[C@@H](CCCNC(=N)N)C(=O)N[C@@H](CCCCN)C(=O)N[C@@H](CCC(=O)O)C(=O)N[C@@H](CO)C(=O)N[C@@H](CCCCN)C(=O)N[C@@H](CCCCN)C(=O)N1CCC[C@H]1C(=O)N1CCC[C@H]1C(=O)N[C@@H](C)C(=O)N[C@@H](CCCCN)C(=O)N[C@@H](CC(C)C)C(=O)N[C@@H](CCC(N)=O)C(=O)N1CCC[C@H]1C(=O)N[C@@H](CCCNC(=N)N)C(=O)O)C(C)C
B8: H-FS-S(O-octanoyl)-FLSPEHQRVQQRKESKKPPAKLQPR-OH (peptide)
peptide: H-FSS(Octanoyl)FLSPEHQRVQQRKESKKPPAKLQPR-OH
SMILES: CCCCCCCC(=O)OC[C@H](NC(=O)[C@H](CO)NC(=O)[C@@H](N)Cc1ccccc1)C(=O)N[C@@H](Cc1ccccc1)C(=O)N[C@@H](CC(C)C)C(=O)N[C@@H](CO)C(=O)N1CCC[C@H]1C(=O)N[C@@H](CCC(=O)O)C(=O)N[C@@H](Cc1c[nH]cn1)C(=O)N[C@@H](CCC(N)=O)C(=O)N[C@@H](CCCNC(=N)N)C(=O)N[C@H](C(=O)N[C@@H](CCC(N)=O)C(=O)N[C@@H](CCC(N)=O)C(=O)N[C@@H](CCCNC(=N)N)C(=O)N[C@@H](CCCCN)C(=O)N[C@@H](CCC(=O)O)C(=O)N[C@@H](CO)C(=O)N[C@@H](CCCCN)C(=O)N[C@@H](CCCCN)C(=O)N1CCC[C@H]1C(=O)N1CCC[C@H]1C(=O)N[C@@H](C)C(=O)N[C@@H](CCCCN)C(=O)N[C@@H](CC(C)C)C(=O)N[C@@H](CCC(N)=O)C(=O)N1CCC[C@H]1C(=O)N[C@@H](CCCNC(=N)N)C(=O)O)C(C)C
B9: H-[cACC]-S(O-octyl)-FLSPEHQRVQQRKESKKPPAKLQPR-NH2 (peptide)
peptide: H-[Achc(cis-1,4)]S(Octyl)FLSPEHQRVQQRKESKKPPAKLQPR-NH2
SMILES: CCCCCCCCOC[C@H](NC(=O)[C@H]1CC[C@@H](N)CC1)C(=O)N[C@@H](Cc1ccccc1)C(=O)N[C@@H](CC(C)C)C(=O)N[C@@H](CO)C(=O)N1CCC[C@H]1C(=O)N[C@@H](CCC(=O)O)C(=O)N[C@@H](Cc1c[nH]cn1)C(=O)N[C@@H](CCC(N)=O)C(=O)N[C@@H](CCCNC(=N)N)C(=O)N[C@H](C(=O)N[C@@H](CCC(N)=O)C(=O)N[C@@H](CCC(N)=O)C(=O)N[C@@H](CCCNC(=N)N)C(=O)N[C@@H](CCCCN)C(=O)N[C@@H](CCC(=O)O)C(=O)N[C@@H](CO)C(=O)N[C@@H](CCCCN)C(=O)N[C@@H](CCCCN)C(=O)N1CCC[C@H]1C(=O)N1CCC[C@H]1C(=O)N[C@@H](C)C(=O)N[C@@H](CCCCN)C(=O)N[C@@H](CC(C)C)C(=O)N[C@@H](CCC(N)=O)C(=O)N1CCC[C@H]1C(=O)N[C@@H](CCCNC(=N)N)C(N)=O)C(C)C
B10: H-PS-S(O-octyl)-FLSPEHSR-NH2 (peptide)
peptide: H-PSS(Octyl)FLSPEHSR-NH2
SMILES: CCCCCCCCOC[C@H](NC(=O)[C@H](CO)NC(=O)[C@@H]1CCCN1)C(=O)N[C@@H](Cc1ccccc1)C(=O)N[C@@H](CC(C)C)C(=O)N[C@@H](CO)C(=O)N1CCC[C@H]1C(=O)N[C@@H](CCC(=O)O)C(=O)N[C@@H](Cc1c[nH]cn1)C(=O)N[C@@H](CO)C(=O)N[C@@H](CCCNC(=N)N)C(N)=O

Biological target: human growth hormone secretagogue receptor type 1a (human, UniProt Q92847 1-366)
Sequence (Q92847 whole entry): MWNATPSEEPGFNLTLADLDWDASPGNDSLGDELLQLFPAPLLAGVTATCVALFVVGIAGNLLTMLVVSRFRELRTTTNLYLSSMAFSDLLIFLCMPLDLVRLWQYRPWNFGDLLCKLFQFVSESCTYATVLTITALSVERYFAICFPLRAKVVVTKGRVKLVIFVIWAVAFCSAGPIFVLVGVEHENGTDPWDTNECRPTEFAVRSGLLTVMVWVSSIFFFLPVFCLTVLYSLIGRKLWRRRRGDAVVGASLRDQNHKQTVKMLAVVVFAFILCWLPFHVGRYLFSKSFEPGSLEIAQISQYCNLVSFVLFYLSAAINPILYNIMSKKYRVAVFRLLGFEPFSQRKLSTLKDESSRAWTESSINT
Experiment: cell-based or functional assay

| Binder | EC50 (nM); Ca2+ induction in HEK293 cells stably expressing the human ghrelin receptor [nM] |
| --- | --- |
| B1 | 0.231 |
| B2 | 0.221 |
| B3 | 0.558 |
| B4 | 0.48 |
| B5 | 0.33 |
| H-PS[NH‑CH(n-C10H21)‑C(O)]FLSPEHQRVQQRKESKKPPAKLQPR-NH2 [H-PS-[NH-CH(n-C10H21)-C(O)]-FLSPEHQRVQQRKESKKPPAKLQPR-NH2] | 0.333 |
| B6 | 0.467 |
| H-PS[NH‑CH(n-C10H21)‑C(O)]FLSPEHQRVQRKESKKPPAKLQPR-NH2 [H-PS-[NH-CH(n-C10H21)-C(O)]-FLSPEHQRVQRKESKKPPAKLQPR-NH2] | 0.23 |
| B7 | 0.385 |
| B8 | 0.714 |
| B9 | 0.271 |
| B10 | 0.44 |
